Reference: patent US9333240B2, “Compounds for improving nutritional status, cognition and survival” (YISSUM RESEARCH DEVELOPMENT COMPANY OF THE HEBREW …, priority 2005, dated 2016)
“Also recorded” adds a separate entry of the source.

Assays:
[1] = test system: mice; experiment: Morris Water Maze in diet-restricted mice; format: in vivo; conditions: leptin 1 mg/kg daily; data not shown
Method: The effects of leptin administration (restoration) on neural function in diet-restricted mice was investigated. Mice were assigned at random to 4 groups. The groups were kept under ad libitum or DR to 40% for 10 days and injected daily with either 1 mg/kg leptin or saline for 5 days during the second week. […] Cognitive performance improvement was also observed in the Morris Water Maze (data not shown). Then the effects on the concentrations of NE and dopamine in the hippocampus were evaluated. […] To elucidate the cellular mechanisms involved in leptin effects, proteins associated with apoptosis were determined by immunoblotting. Leptin induced up-regulation of bcl-2 while reducing Bax levels. […] The anti-apoptotic effect of leptin was further confirmed by detection of activated caspase-3 expression as ?of apoptotic cell death. Activated caspase-3 could not be detected in the hippocampi of control animals.

[2] = test system: mice; experiment: Eight-arm maze in TAA model of hepatic encephalopathy; format: in vivo; conditions: TAA treated mice, 1 mg/kg Leptin daily for 5 days
Method: FIG. 11. […] Mice were treated with TAA, then 1 mg/kg Leptin was administered daily for 5 days. Cognitive function was evaluated in the eight arm maze.
The animals were placed in an eight-arm maze, which is a scaled-down version of that developed for rats (Randt et al, (1971) Science 172, 489-499; Ziv et al (1994) Neuroscience Lett, 170, 136-140). We used water deprivation achieved by limiting water consumption overnight and a reward of 50 μl of water presented at the end of each arm. The mice were tested until they made entries into all eight arms or until they completed 24 entries, whichever came first. […] Maze performance was calculated each day for five consecutive days. Results were presented as area under the curve (AUC) utilizing the formula: (day 2+day 3+day 4+day 5)−4*(day 1).

[3] = test system: norepinephrine and dopamine in the hippocampus; experiment: Hippocampal catecholamine measurements (HPLC-ECD); format: in vivo, mice; conditions: 1 mg/kg leptin daily
Method: Control mice received food ad-libitum. Diet-restricted mice received a diet of 57 kCal/week/mouse (2.16 g/day/mouse) as 60% of the requirement, or 38 kCal/week/mouse (1.44 g/day/mouse) for 40%/DR. DR was carried out for 10 days. Behavioral test was performed using the eight-arm spatial maze during the second week of experiment. During the behavioral tests, half of the animals in each group were injected intraperitoneally (i.p) with AICAR (1-2 mM equal to 258-516 mg/kg) or leptin (1 mg/kg) and the other half with saline. Mice were sacrificed by decapitation after the behavioral tests and the hippocampi were frozen at -70° C. Catecholamines were measured as described previously ([…] et al (1996), Brain Res. 732, 133-144. The assays for dopamine and NE were performed by HPLC separation and detection using HPLC-ECD. Values are presented as a concentration (ng/mg tissue).

[4] = test system: Cultured cardiomyocytes; experiment: Apoptosis of glucose-deprived cardiomyocytes by FACS; format: cell-based; conditions: glucose deprived condition for 1, 2, 6 h, 1 ug/ml Leptin
Method: In another experiment cultured cardiomyocytes exposed to glucose deprived condition for 1, 2, 6 h were treated with 1 ug/ml Leptin. Apoptotic cell death was detected by FACS analysis.

[5] = test system: activated caspase-3; experiment: Activated caspase-3 immunohistochemistry in hippocampal sections; format: in vivo, mice; conditions: 40% DR, leptin 1 mg/kg
Method: Mice were perfused intracardially with 4% paraformaldehyde in PBS. Their brains were removed, fixed further in the same solution. […] sections, cut on the same day, were de-waxed and hydrated through graded ethanols, cooked in 25 mM citrate buffer pH 6.0 in a pressure cooker at […] for 3 min (decloaking chamber, Biocare Medical), transferred into boiling deinoized water and left to cool down for 20 min. After 5 min treatment in 3% H2O2, slides were incubated with rabbit polyclonal activated caspase-3 antibody diluted 1:100 in CAS-Block (Zymed) for 3 h at room temperature, washed three times with Optimax (Biogenex), incubated for 30 min with anti rabbit Envision_(DAKO) and developed with DAB for 15 min.
The effects of leptin administration (restoration) on neural function in diet-restricted mice was investigated. Mice were assigned at random to 4 groups. The groups were kept under ad libitum or DR to 40% for 10 days and injected daily with either 1 mg/kg leptin or saline for 5 days during the second week. […] Then the effects on the concentrations of NE and dopamine in the hippocampus were evaluated. […] To elucidate the cellular mechanisms involved in leptin effects, proteins associated with apoptosis were determined by immunoblotting. […] Activated caspase-3 could not be detected in the hippocampi of control animals.

[6] = test system: mice; experiment: Survival of mice under severe energy restriction (40% DR); format: in vivo; conditions: for survival time: Kaplan Meir log rank p<0.05
Method: Severe energy restriction leads to deterioration of neural function and eventually death. Since leptin can improve cognitive function following DR to 40% and prevents neural apoptosis, it was investigated whether it may also promote mice survival under these same severe conditions. In the first experiment, mice were fed ad libitum or DR to 40% for 12 days and injected daily with 1 mg/kg leptin or saline during the second week (5 days). 95% of the mice survived with leptin treatment compared to 65% in the control group (p<0.05). In a second experiment, mini-osmotic pumps delivering 0.05 mg/kg/h leptin or saline continuously for 16 days were implanted in mice under 40% DR (12 animals in each group). […] The 50% survival in the treated group increased from 9 to 14 days. (FIG. 5).

[7] = test system: AKT; experiment: AKT phosphorylation in glucose-deprived cardiomyocytes; format: cell-based; conditions: glucose deprivation for 1, 3, 6 h
Method: Cultured cardiomyocytes exposed to glucose deprivation for 1, 3, 6 h were treated with Leptin. Stat-3 phosphorylation (A) and AKT phosphorylation (measure for cell survival and cardioroprotection) were measured by protein analysis.

[8] = test system: mice; experiment: Activity index in TAA model of hepatic encephalopathy; format: in vivo; conditions: TAA treated mice, 1 mg/kg Leptin daily for 5 days
Method: FIG. 10. […] Mice were treated with TAA, then 1 mg/kg Leptin was administrated daily for 5 days and activity index was evaluated.
Mice were treated with TAA to cause an experimental hepatic encephalopathy-brain damaged caused by liver dysfunction and common in people whose liver function deteriorates. The activity index of the animals was assessed. […] FIG. 11.

B1: leptin: Murine leptin provided by A. Gertler; adipokine hormone, full leptin is a 146 amino acid sequence (protein, UniProt P41160 22-167, looked up)
Leptin: VPIQKVQDDTKTLIKTIVTRINDISHTQSVSAKQRVTGLDFIPGLHPILSLSKMDQTLAVYQQVLTSLPSQNVLQIANDLENLRDLLHLLAFSKSCSLPQTSGLQKPESLDGVLEASLYSTEVVALSRLQGSLQDILQQLDVSPEC
Question: Which results are given for B1?
Answer: cognitive performance in the Morris Water Maze [1]: improvement; cognitive function in the eight arm maze [2]: reversed impaired cognitive function; dopamine concentrations in the hippocampus ([3]; AL group): down-regulated; dopamine concentrations in the hippocampus ([3]; DR group (40%)): did not induce any significant reduction; NE concentration in the hippocampus ([3]; DR to 40%): reversed the reduction of NE; apoptotic cell death (FACS) [4]: reduced apoptotic death; apoptotic cell death (FACS) ([4]; listed as Leptin): decreased apoptosis; activated caspase-3 immunoreactivity [5]: significantly reduced the immunoreactivity; 50% survival ([6]; 40% DR, mini-osmotic pump 0.05 mg/kg/h leptin for 16 days, 9 days with saline): 14 days; survival time ([6]; 40% DR, mini-osmotic pump 0.05 mg/kg/h leptin for 16 days): survived significantly longer; survival time ([6]; 40% DR, mini-osmotic pump 0.05 mg/kg/h leptin for 16 days, listed as Leptin): increases survival; mice survived ([6]; DR to 40% for 12 days, 1 mg/kg leptin daily during second week (5 days), 65% in control group, p<0.05): 95%; cell survival as measured by AKT phosphorylation [7]: improved the cell survival; activity index [8]: reverse activity in diseased animals to the level of health controls; also recorded: reversed activity to control level
